In PMC3934934, “The Self-Interaction of a Nodavirus Replicase Is Enhanced by Mitochondrial Membrane Lipids” (PLoS ONE, 2014):

Columns and labels:
Conditions in all cases: one partner purified
[1] = target: T1, MBP-tagged full-length (FL) WhNV protein A (Wuhan nodavirus (WhNV), UniProt Q3KSM3 1-1014); test: pull-down
T1 construct: also called MBP-protA; 1–1014 MBP/protA; source: E. coli strain TB1, purified (amylose resin); not shown: MBP, N-terminal, kept
T1 sequence: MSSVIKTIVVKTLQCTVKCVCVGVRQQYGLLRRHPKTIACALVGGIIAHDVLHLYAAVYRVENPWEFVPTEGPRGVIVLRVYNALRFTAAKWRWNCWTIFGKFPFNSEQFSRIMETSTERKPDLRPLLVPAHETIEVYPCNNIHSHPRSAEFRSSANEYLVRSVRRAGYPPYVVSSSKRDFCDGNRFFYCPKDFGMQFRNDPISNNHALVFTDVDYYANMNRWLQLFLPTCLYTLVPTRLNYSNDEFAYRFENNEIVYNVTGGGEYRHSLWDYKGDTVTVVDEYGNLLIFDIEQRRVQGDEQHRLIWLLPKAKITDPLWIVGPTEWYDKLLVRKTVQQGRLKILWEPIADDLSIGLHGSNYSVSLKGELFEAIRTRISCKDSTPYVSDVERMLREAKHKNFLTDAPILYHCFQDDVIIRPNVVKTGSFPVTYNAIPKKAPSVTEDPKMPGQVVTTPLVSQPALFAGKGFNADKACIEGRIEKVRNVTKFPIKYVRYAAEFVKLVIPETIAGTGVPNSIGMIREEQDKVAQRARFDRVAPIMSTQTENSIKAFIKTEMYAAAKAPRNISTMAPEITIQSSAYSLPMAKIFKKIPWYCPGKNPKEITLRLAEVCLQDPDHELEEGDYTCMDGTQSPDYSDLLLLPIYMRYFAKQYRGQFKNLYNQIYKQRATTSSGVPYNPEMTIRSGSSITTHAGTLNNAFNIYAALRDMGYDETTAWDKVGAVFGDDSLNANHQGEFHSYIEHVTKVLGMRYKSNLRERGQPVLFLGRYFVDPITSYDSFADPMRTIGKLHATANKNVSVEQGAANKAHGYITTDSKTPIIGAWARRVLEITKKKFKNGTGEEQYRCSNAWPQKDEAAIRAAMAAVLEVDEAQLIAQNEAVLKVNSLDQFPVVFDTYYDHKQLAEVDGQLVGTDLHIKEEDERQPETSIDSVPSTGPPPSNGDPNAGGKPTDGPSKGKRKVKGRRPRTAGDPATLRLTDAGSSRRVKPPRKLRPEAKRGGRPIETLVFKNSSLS

[2] = target: T2, MBP-protA fragment aa 1–480 (Wuhan nodavirus (WhNV), UniProt Q3KSM3 1-480); test: pull-down; MBP fusion protein (1 µM) held on amylose resin, His-tagged protein (1 µM) in vitro translated in rabbit reticulocyte lysate; room temperature, 4 hrs; no lipids; Western blot with anti-His; signals given as % of FL to FL protein A self-interaction
T2 construct: also called 1–480 MBP/protA; source: E. coli strain TB1, purified (amylose resin); not shown: MBP, N-terminal, kept
T2 sequence: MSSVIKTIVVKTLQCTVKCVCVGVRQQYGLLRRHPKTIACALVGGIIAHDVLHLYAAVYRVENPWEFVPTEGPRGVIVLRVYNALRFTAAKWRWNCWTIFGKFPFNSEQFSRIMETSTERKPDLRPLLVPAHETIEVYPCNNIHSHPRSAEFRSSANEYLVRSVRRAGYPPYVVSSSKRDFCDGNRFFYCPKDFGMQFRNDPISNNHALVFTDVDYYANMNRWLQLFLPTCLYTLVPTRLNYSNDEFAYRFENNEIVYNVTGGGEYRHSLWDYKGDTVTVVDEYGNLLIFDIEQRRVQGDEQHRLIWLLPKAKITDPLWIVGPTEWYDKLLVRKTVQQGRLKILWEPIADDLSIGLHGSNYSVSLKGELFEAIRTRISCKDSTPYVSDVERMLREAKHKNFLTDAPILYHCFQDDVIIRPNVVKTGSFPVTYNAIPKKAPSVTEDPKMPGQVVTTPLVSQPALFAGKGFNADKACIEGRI

[3] = target: T3, MBP-protA fragment aa 255–480 (Wuhan nodavirus (WhNV), UniProt Q3KSM3 255-480); test: as above
T3 construct: source: E. coli strain TB1, purified (amylose resin); not shown: MBP, N-terminal, kept
T3 sequence: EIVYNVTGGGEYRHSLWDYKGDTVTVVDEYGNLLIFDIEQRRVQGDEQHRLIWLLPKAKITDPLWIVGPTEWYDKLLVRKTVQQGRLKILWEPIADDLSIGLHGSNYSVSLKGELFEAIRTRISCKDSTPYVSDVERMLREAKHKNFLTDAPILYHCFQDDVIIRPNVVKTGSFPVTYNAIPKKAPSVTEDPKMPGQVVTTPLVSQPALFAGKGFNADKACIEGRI

[4] = target: T4, MBP-protA fragment aa 1–659 (Wuhan nodavirus (WhNV), UniProt Q3KSM3 1-659); test: as above
T4 construct: also called 1–659 MBP/protA; source: E. coli strain TB1, purified (amylose resin); not shown: MBP, N-terminal, kept
T4 sequence: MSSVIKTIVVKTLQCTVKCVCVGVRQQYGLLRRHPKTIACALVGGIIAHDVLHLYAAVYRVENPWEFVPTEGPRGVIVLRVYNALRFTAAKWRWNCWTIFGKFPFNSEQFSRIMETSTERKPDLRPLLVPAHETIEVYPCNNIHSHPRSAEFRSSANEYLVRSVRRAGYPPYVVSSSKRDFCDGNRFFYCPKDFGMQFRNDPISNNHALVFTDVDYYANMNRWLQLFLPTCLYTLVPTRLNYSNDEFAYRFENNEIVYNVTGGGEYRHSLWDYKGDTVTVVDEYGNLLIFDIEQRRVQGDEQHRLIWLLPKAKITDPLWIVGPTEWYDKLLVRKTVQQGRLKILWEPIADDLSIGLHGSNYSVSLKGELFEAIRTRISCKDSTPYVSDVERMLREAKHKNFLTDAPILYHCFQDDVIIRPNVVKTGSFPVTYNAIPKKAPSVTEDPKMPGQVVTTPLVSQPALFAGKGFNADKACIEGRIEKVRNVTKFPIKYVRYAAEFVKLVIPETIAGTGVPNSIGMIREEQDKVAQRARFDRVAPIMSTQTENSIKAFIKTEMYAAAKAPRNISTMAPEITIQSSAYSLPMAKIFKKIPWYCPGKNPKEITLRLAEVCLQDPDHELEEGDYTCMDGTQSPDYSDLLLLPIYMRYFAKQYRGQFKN

B1: His-tagged WhNV protein A, in vitro translated (natural protein)
chain: MSSVIKTIVVKTLQCTVKCVCVGVRQQYGLLRRHPKTIACALVGGIIAHDVLHLYAAVYRVENPWEFVPTEGPRGVIVLRVYNALRFTAAKWRWNCWTIFGKFPFNSEQFSRIMETSTERKPDLRPLLVPAHETIEVYPCNNIHSHPRSAEFRSSANEYLVRSVRRAGYPPYVVSSSKRDFCDGNRFFYCPKDFGMQFRNDPISNNHALVFTDVDYYANMNRWLQLFLPTCLYTLVPTRLNYSNDEFAYRFENNEIVYNVTGGGEYRHSLWDYKGDTVTVVDEYGNLLIFDIEQRRVQGDEQHRLIWLLPKAKITDPLWIVGPTEWYDKLLVRKTVQQGRLKILWEPIADDLSIGLHGSNYSVSLKGELFEAIRTRISCKDSTPYVSDVERMLREAKHKNFLTDAPILYHCFQDDVIIRPNVVKTGSFPVTYNAIPKKAPSVTEDPKMPGQVVTTPLVSQPALFAGKGFNADKACIEGRIEKVRNVTKFPIKYVRYAAEFVKLVIPETIAGTGVPNSIGMIREEQDKVAQRARFDRVAPIMSTQTENSIKAFIKTEMYAAAKAPRNISTMAPEITIQSSAYSLPMAKIFKKIPWYCPGKNPKEITLRLAEVCLQDPDHELEEGDYTCMDGTQSPDYSDLLLLPIYMRYFAKQYRGQFKNLYNQIYKQRATTSSGVPYNPEMTIRSGSSITTHAGTLNNAFNIYAALRDMGYDETTAWDKVGAVFGDDSLNANHQGEFHSYIEHVTKVLGMRYKSNLRERGQPVLFLGRYFVDPITSYDSFADPMRTIGKLHATANKNVSVEQGAANKAHGYITTDSKTPIIGAWARRVLEITKKKFKNGTGEEQYRCSNAWPQKDEAAIRAAMAAVLEVDEAQLIAQNEAVLKVNSLDQFPVVFDTYYDHKQLAEVDGQLVGTDLHIKEEDERQPETSIDSVPSTGPPPSNGDPNAGGKPTDGPSKGKRKVKGRRPRTAGDPATLRLTDAGSSRRVKPPRKLRPEAKRGGRPIETLVFKNSSLS
notes: also called His-protA; FL His-protA; source: in vitro translated in nuclease-treated rabbit reticulocyte lysates
fold of the self-interaction without MMLs, at 1 µg/µl MMLs [1]: ~4.6 fold | fold of the self-interaction without MMLs, at 2 µg/µl MMLs [1]: ~9 fold | fold of the self-interaction without MMLs, at 5 µg/µl MMLs [1]: ~12 fold | self-interaction efficiency, % of FL to FL protein A self-interaction [2]: 94% | self-interaction efficiency, % of FL to FL protein A self-interaction [3]: 52% | self-interaction efficiency, % of FL to FL protein A self-interaction [4]: 96%
